Test results reported in the domain aggregation screens of Martell et al. (2025).

Assay: soluble fraction after stress (log2 fold change); higher = more stays soluble; pooled small domains, quantitative proteomics
Conditions: stress: 75 degC
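Also: 20 min heating vs room temperature control held 20 min.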

Sequence | soluble fraction (log2)
HMTTARERVYKTLQQWIVNGTLLPEERLNDVELARYFSVSRTPVREALQMLAEQKLVKMVPSSGTFVA | -1.44
HMTTELDTTAITPIIQKVLKANPDVVAKYKAGQQQVIGFLMGQVMRELSTKPNPKELQSLIVAQLQQA | -0.0252
HMTTGEIIQRERTRLGLSQEKLAEQVGVSRQAVSKWELGDAVPDTDKLVPLARTLGISVDTLLD | 0.12
HMTTGGAEELGRTERKIVEQVGRGLSNREIAQVLGLSEGTVRNYLSTILGKLGLRDRTQLAIWSVQTGFAA | 0.21
HMTTHERHEIIELLRQVGDPMRPKEISEALGKPSGAIRFLLSKLTEEGAIKKTGYGQYTYIP | -0.784
HMTTLTPIGKMKGEIDGDFEAFYLAVDKDGQVYLNRDPDYSENRYEKSRGWELVTREQLAVYEKELHFIP | -0.707
HMTTMYKSDVKGINYDVKAKSWFLRITFNGNQIPIGHFKTEEDAINVKQQLIPYIESKDYTSILAVKAKYS | -1.9
HMTTPDIIVPDVKGMTVAEAQKALEEKGFKVKLEEMTQEGAVPGDVIRIDPVAGTKRKEGAKITLLIARG | -0.0237
HMTTQTGTVKWFNEGKGFGFIAPDDGGKDLFAHFKEIQGTGFKTLAENQRVEFEVTQGQKGPQASKI | -0.0331
HMTTQTTKYVNTTAGLNVRTGPSTSYAKIVTLSYGQSVNVLSTSNGWSKINYNGSTGYVSSQYLQSTKPS | -2.28
HMTTSNPMNVTSAEAAFDNGTDRLNAFISGRTTSEERSTYFPLFVRETKEDFLRAVGRFNEYIANHG | 0.055
HMTTTAGTAVVQTGNSGKLNLREQAYSNAGILGRYSNGTIVTVLQKGSAWSYVEVQGQKGYMMSKFLRFT | -2.75
HMTTTFGWENLVGEKGIAATDLHPSGWVTVKDQRVFVVSEGTFIEEGKEVEIMNVDGNRIVVREFKN | 0.216
HMTTTPTSQMVTELRSRGWTLRALAQRLGVGHASINRWANGVTPDRDLVAALRALVASGEVP | -0.833
HMTTTYEINDEMLKPLILEIFNKSKQRFGSTKIAPVLKREGYTASIAKVKTLMNELGIKPVNA | -1.07
HMTTTYTVPKVTGMTLEEAREDPDVVGRFTIVEGEKVTSDTVPVGQIVSQEPAAHRQVGEDGLTITVNIS | 0.634
HMTTVKDRVYEILKREIVLGKLKPGEPINIAVLSTKLNISSAPLREALNMLSRDGLVTLNPRKHAAVSE | -1.31
HMTTVRLNATVPPELALQRLDRVARELFPEYSRNRLQQWIRSGELLVNGSPSGVRDKVPLGAELAVAANLE | -0.657
HMTTVSINTTGIITASTIRASSALYPPLYTTVQRDAGTFSAGAIIFNSTTSKLEFYDGTTWQSLPG | -0.339
HMTTVTVGSKVRVKAGATFSDGAKPFAEVYNTVYDVQLLSHNGKEARIGIGDQWTGWIYISDLYLANQPAP | -1.84
HMTVEMYIGKTANVLETVTENNGRIAIFGEEWQAKSLNGETIEKGAQAKIVKNDSIIMYVVPI | -0.443
HMTVGENTYELIKKDIIFGVLPPLKKLKLQELKKIYNASVSTLREILSRLTGDGFVFSEEQKGFYVSPV | 0.0263
HMTVKEVGYDTFLTMLDKKEIKQVQVEDNQIIFSDNADPVNYYKTGVFNDPDLVNRLQDAGVEFG | 1.01
HMTVKEYNRAVDEYSDAVWRFIRGNLRDEDRANDIVQDSFEKLWMHVTEIDYSVAKSWLFSTAYNNMIDI | -0.707
HMTVKKLTINEDNSGRRIDNYLLSIFNSLPRSKIYNIIRKGEVRVNSSRIKPNYRLEQGDLVRIPPNLEFT | 0.154
HMTVKRNLVQEILRLKFRHPENFMPNRAFYQEVGINQMRWWDIFYGRKNINQEEYIALSKYF | -0.353

Sequence | soluble fraction (log2)
HMTVLPTEQDAKALVGLGEEEAAKIVEGNGWTYRIGSRDGEQFMLTEDFVTSRLTLGIEKAIVMTATI | -0.906
HMTVLSKEEFVAIEQRLLQLLGTAPVDNKILLQQLSGIKKEKAWKVLSFLQAENKIGMDATGRVYL | -0.974
HMTVPDVKGMGARDAVFLLETLGFKVRINGIGQVYEQSIDPGKSYSKGEFISLRL | -0.699
HMTVPNVVGQRILAAQDILKNLGLKVLVDTNLPNSQWGLRNVKSTNPGAGAVVRVGDTVTLIAR | -0.441
HMTVPTEVALELMHATALEDNEQRILYIASFKEKHREHLHATIEVDGQEVTLARYADLVATGAYL | -2.56
HMTVSADIIQKIIKTSTTDENIITIDSISNSISKLALSKITAEDIIEILEASSLVLRNSNGSWTVL | -1.7
HMTVSKLKVINYTIRNGDSLWTISRKFNVTVDKVKEWNGLSDRTLLQPGQKLTLYVDPTIQISH | -1.82
HMTVSLLQTRQRLQALADLGHYKGDLGAAWGPDAIEALKKAQATLGVTVDGKWGPQTEDAIQVALKVQ | -0.237
HMTVTISPGYEGRLLRSYLKNTLSLSTSALARLKTREDGITVNGVRVTVRYVLHAGDLLQLAVD | -0.579
HMTVVHRQVHLQPDQGAFRAALYSHKAVLSEQTDDQGAINLEIRLPESDFLRLLNSSGLKLQDLVP | -0.427
HMTVVSVDDQASASSEAIRTKVAGDSAARMSVDAGGKITWGAGSASGDVTLYRSAANTLKTDDTLVAT | 0.16
HMTYADTRDLLIRRGMELLTEQGIAATSIERVLQSTGIPKGSFYHYFATKHDFTLAVMDAYHHY | -0.157
HMTYAQQIGARIAFLRRLKGLTLAELAERVNKHKSTISKYESGQIIIDIESLKEVADALGVDVAQIVE | -1.26
HMTYFDIAPELLTVYKEINDIPRDINQIVRKTGLSINEVSYKTMILQLEDKIVELPGQRFIRNS | -2.46
HMTYKHLTIDEMKRFLSTREDSQSALVQFARVENVVGNRKGKYAVIKKWFLKNYKEEYNAFLS | 0.0231
HMTYPGSIALVNPKHEAFVQHYVATSGSRGQAAKLAGVTTTTARNLLQDVEATARIRYLNAQQFQ | -0.12
HMTYTGTVTGVDEGGLRVRSSTSTENTSNVITKVYTGDTFDVLDTVYNGSAKWYKIGFTYNGTYTYGYVSA | -1.51
HMTYVSVSNYIGTNVDKAKGELESQGLVVLLEEQKTEDKSQDGMVLKQTIEGGTKVSSGSRITLIYGRYT | -0.0441
HMVADEGELLAIAREVVAANPKVFEDWKAGKQSAAQWFVGQIMKRTRGRANPQLALKLVTQALEEHAR | 0.0384
HMVAEKSKIEMAIDSINKLAKELADSGVAKKTISDIIKSVSGSANYNKITDFEVATDVYKELVALKNKEDT | 0.223
HMVAESGLPPAFRSTWRHIMQTRGAQLDVLAMRTGTDAASLQKQLHAMELGGWVRRMPGGWYVPLK | -1.78
HMVAFYATPKERGIYDDAETYREGDIVSIADGSRWIYVNPTATAGNDPADGSVYWERMSGAATGP | 0.116
HMVAGHLQEKKGYFYMVLTYRDHEGKRKSKWLPTGLTIKGNKKRAQDLLQDARKNFVPDIPT | -2.37
HMVAGHLQEKNGYFYIVLNYTNHEGKRKSKWITTGLTVKGNKKRAQDLLQEARKTFVPDIPT | -2.88
HMVAPKDIVMPSFVGKKYTDVVNTPNSSYTFEFKKDEKNSSDYAVGFIMDQKPKAGETVKSNATVTLIVSK | 0.0603
HMVAPNSEATTKLIIEKTKYANESPAILMGFKATATMLMAKHVVLPTSKYAYFNEGRALLEKAIK | 0.154

Sequence | soluble fraction (log2)
HMVAREAYTTQNLTDVFSISRQAVEKRAKREGWQSVPRKGRGGGKLWVVSSMPAETRDLLASLLLRK | -0.608
HMVDALYGQGARVMRDFSEGSGIVKLDNGETWTGRLSPAASGASLYVGDRVIVTRIDGAIAEVTPP | 0.00352
HMVDDNFGLGEVTDQNYLTVLGRALDLIGWTDEQADSYSLKTFGVPHWDELGRSQAEKLVAHLIGLLKEQM | 0.0834
HMVDIEQAEFLSRQFDLLLARLDDPTIEWQDIADIRSEYTGENEHRDTIRKGSKLFYEYLQAGWIKN | -0.678
HMVDISLSDRELEVLRLLAMGLSNADISRRLYLSEGTIRNYMSGIFSKLNVSDRTQAVVIALREGLVNL | -1.56
HMVDPAEASKRAREYLDALPADDLKDVIRQFSATLAEGSVVLGYFQRSGLKSKVVKTALEQFVASTILSK | -1.16
HMVDPAFLAWQQKPENTWFGTDRRKTALAIAIAEEIRNDPANSNLVGAAFYARVAEETEETLN | -0.546
HMVDPWLEQVHRASAAYATAHGSARIPTTHPDLGWKVVRVRQRHRKGLLSDEWVAKFEALPGWTWEPK | -1.52
HMVDQAFQTQLKNIQARTGKNLDELYAFIRASGLVKHGEIRDLAKRELSLGHGDANTLAKFYLESLAAAA | 0.0377
HMVDQKLIQASAEHSGIRIDRFLSEQLPEHSRSYIQKLIKDGQVSIGGKAVKSNYKIAGTEEISLLIPDQ | -0.0516
HMVDTSDLPAIVEKVFADNPEQVNDILNGKDRVKGFLVGQIMKATRGQAPPDEVNKLIDATLEKMKAA | 0.239
HMVDYIGRRGVMLSTVSEEKMGNAEVVIDGNSYNIYVKSLDGSTIAYHQEILIINKSKDNNYFLVQIY | -2.81
HMVEAIDQALIEKQIQAVLQENSAAVKKYQAGKTEVLAFLIGQSMRKIAKKVDANLVKNILLEQLKNK | 0.228
HMVEDFSEVLLQYIREQGGAIALNDKTDAGVIYDTFGVSKKTFKKAVGDLYKKRLIVLGDEGIRLA | -0.757
HMVEIGENIKKLRKAKRMTQKEVANQLNVTPQTISKWERNISYPDLDMLVKLSQLFHISTDALL | -0.553
HMVELNDNEKIVYDILKETEKIHIDELTAKVQLTQSILSGALVQMEMKGMIVSLPGKMYKLL | -1.65
HMVELRDGSLPLARGSVGDLVAEVQRKLGVAADGIFGPQTERAVRAFQARAGLASDGIVGPLTWSALFGA | -0.516
HMVELVKVPALQGETVDEAIADIKDAGLEPGQVRYVESDLPKDTVTYQSVDAGEQVKAGTVINLQASKGP | 0.765
HMVEMSNMELVREQYFQNLIYNVGDWVKDSKTEITGEVVKRGTNYLTIVQEDFTLHKVWLEDAESME | -0.511
HMVEPDELTEREREVLQFVARGLSNKEIGAALALSPHTIKAHLRSILDKLHLRSRAEAAAWAVRSGLS | -0.344
HMVEPLIVRNFSINYADIDKLETKIKDYISNSDKSGVNRGRVTSDTRTNMLIVTETASKLAQVEQLLKALD | -0.279
HMVEPTDFTYLKAEVETAKALKQADYTVATWKSFAGELAEAEEVIAKTDASQAEVNEALSHLQAAEKELV | 0.23
HMVETDQESSLIQAIYKYFEITGDNTFFDEKVGEKTVADRMEWAMDYLIQNRFSEEYGLIWGA | -0.285
HMVFADRLRALRKKSGLTQDEFSKQTGIGRSAVGMYESGKREPNYTTLSKVARFYHVSTDYLLGRTDTP | -1.52
HMVFQTAAEKAYEIISKKIMKGEYEPGMRLVRRQLAQELGVSPIPILEAMKRLEQDGLIEYKAHWGSIVTI | -2.29
